Here are results for 1 substance from patent US20220290120A1.

Assay [1] addresses catalytically inactive Cas9 (dCas9) (Streptococcus pyogenes) (UniProt Q99ZW2). Nature of the assay: cell-based or functional assay.
Assay [2] deals with Cas9 nickase (nCas9) (Streptococcus pyogenes) (UniProt Q99ZW2). Nature of the assay: cell-based or functional assay.

As to AcrIIA4 anti-CRISPR peptide, in assay [1], the percent enzyme expression of gusA after dCas9 induction from Plasmid 6 (with acrIIA4); X-Gluc assay in E. coli came to 0%, the percent enzyme expression of lacZ after dCas9 induction from Plasmid 6 (with acrIIA4); LacZ blue white screening in E. coli was determined as 27.3% and the percent expression of flhC after dCas9 induction from Plasmid 6 (with acrIIA4); swimming motility assay in E. coli stood at 100%. For the same substance, in assay [2], the average percent of qPCR-confirmed edited cells with nCas9 Plasmid 4 (+acrIIA4), per sgRNA unit pair; without acrIIA4 (Plasmid 5) between 73% and 100% fell in the range of 0.7 to 5.9%.
